Data taken from patent US20240116985A1 (published 2024).
Starred links: 1 amine or outer side, 2 acyl side, 3 side chain; linkers in the order of their positions; H or OH if unused. Positions of bridges follow the written chain, without caps; N, C: chain ends. Non-standard residues stand in square brackets, D forms with d. Primed or numbered codes have the meaning given here. B5(11) = 2,2-bis(4-pentenyl)glycine = 2-amino-2-(pent-4-en-1-yl)hept-6-enoic acid (stitching residue, bears both staples), C=CCCCC(CCCC=C)(N[*:1])C(=O)[*:2]; SeN″ = (S)-5-(((allyloxy)carbonyl)(methyl)amino)-2-amino-2-methylpentanoic acid (stapling residue), C=CCOC(=O)N(C)CCC[C@](C)(N[*:1])C(=O)[*:2]; B5(16) = 2-amino-2-(pent-4-en-1-yl)hept-6-enoic acid = 2,2-bis(4-pentenyl)glycine (stitching residue), C=CCCCC(CCCC=C)(N[*:1])C(=O)[*:2]; B5(23) = 2-amino-2-(pent-4-en-1-yl)hept-6-enoic acid (2,2-bis(4-pentenyl)glycine), stitching residue, C=CCCCC(CCCC=C)(N[*:1])C(=O)[*:2]; B5(4) = 2,2-bis(4-pentenyl)glycine = 2-amino-2-(pent-4-en-1-yl)hept-6-enoic acid (stitching residue), C=CCCCC(CCCC=C)(N[*:1])C(=O)[*:2]; B5(9) = 2-amino-2-(pent-4-en-1-yl)hept-6-enoic acid (2,2-bis(4-pentenyl)glycine), C=CCCCC(CCCC=C)(N[*:1])C(=O)[*:2]; B5″ = 2,2-bis(4-pentenyl)glycine, stitching residue, C=CCCCC(CCCC=C)(N[*:1])C(=O)[*:2]; B5(28) = 2,2-bis(4-pentenyl)glycine, C=CCCCC(CCCC=C)(N[*:1])C(=O)[*:2]; Phe(3-F) = N[C@@H](Cc1cccc(F)c1)C(=O)O; His(τ-Me) = Cn1cnc(C[C@H](N)C(=O)O)c1; Bta = N[C@@H](Cc1csc2ccccc12)C(=O)O; αAllylPro = C=CC[C@@]1(C(=O)O)CCCN1; NMeH = CN[C@@H](Cc1c[nH]cn1)C(=O)O; S8 = C=CCCCCCC[C@](C)(N)C(=O)O; NMeS = CN[C@@H](CO)C(=O)O

T1: full-length beta-Catenin (Uniprot ID P35222) (Homo sapiens (Human), UniProt P35222 1-781)
T1 construct: The assay text says full-length beta-Catenin (Uniprot ID P35222); also called bCat; B-Catenin
T1 sequence: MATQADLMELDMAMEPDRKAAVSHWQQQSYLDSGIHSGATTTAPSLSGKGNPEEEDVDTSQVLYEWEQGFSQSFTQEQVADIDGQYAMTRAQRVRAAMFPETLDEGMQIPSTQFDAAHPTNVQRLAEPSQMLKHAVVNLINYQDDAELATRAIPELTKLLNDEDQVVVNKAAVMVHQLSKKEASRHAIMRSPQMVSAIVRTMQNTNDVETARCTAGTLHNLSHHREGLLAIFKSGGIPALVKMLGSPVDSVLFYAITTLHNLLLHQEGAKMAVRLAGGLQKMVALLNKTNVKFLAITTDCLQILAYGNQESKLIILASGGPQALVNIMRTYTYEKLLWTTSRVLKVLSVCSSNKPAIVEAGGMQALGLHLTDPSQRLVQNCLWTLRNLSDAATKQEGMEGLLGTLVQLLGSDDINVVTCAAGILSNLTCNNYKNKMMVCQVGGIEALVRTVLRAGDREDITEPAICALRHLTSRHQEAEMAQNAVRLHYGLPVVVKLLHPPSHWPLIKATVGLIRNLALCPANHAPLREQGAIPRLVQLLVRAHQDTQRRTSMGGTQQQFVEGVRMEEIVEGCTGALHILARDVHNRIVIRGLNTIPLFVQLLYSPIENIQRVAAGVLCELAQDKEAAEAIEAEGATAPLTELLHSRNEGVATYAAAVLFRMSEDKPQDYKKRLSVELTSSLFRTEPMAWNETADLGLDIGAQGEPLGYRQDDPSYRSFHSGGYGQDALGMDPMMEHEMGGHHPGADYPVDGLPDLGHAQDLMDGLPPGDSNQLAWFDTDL

T2: full-length beta-Catenin (Uniprot ID P35222) (Homo sapiens (Human), UniProt P35222 2-781)
T2 construct: Also used here for the endogenous beta-catenin of the DLD1 TCF reporter cells; also called bCat; B-Catenin
T2 sequence: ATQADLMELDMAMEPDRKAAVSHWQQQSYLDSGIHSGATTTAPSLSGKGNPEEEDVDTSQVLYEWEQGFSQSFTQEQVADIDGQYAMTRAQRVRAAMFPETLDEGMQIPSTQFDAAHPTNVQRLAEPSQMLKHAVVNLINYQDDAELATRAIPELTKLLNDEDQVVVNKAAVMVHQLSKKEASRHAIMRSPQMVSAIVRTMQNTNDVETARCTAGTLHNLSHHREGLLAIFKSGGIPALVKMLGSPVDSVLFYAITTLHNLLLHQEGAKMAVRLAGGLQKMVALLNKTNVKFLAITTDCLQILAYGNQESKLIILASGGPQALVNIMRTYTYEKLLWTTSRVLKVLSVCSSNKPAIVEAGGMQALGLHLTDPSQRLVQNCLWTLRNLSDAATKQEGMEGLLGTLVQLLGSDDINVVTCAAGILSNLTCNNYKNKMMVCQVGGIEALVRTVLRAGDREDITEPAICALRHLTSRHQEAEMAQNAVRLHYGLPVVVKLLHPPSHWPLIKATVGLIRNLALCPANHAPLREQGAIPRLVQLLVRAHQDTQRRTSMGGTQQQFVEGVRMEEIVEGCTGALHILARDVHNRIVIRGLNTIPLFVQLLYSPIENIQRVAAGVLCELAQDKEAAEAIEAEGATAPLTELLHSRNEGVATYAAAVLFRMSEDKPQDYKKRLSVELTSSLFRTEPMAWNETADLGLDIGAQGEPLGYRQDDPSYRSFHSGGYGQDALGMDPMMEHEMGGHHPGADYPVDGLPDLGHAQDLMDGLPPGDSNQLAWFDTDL


Target: T1, full-length beta-Catenin (Uniprot ID …)
Assay: fluorescence polarization competition; full-length beta-catenin with 5FAM-labeled TCF4 (residues 10-53) probe as competitor
Procedure: The plate was incubated protected from light for 60 minutes at 20° C. prior to read. Reads were performed on a CLARIOstar plate reader (BMG Labtech) in duplicate, and data were fitted to a 1:1 binding model with hill slope using an in-house script. All provided concentrations are final concentrations.

| Binder | IC50 |
| --- | --- |
| XDAXDEAAFVXFXQ (not fully specified; N-terminal Ac; PL3 at 1, B5 at 4, S8 at 11 (stapled 1-4 and 4-11 by olefin metathesis); 23FF at 12; BztA at 13; C-terminal NH2, Stapled peptide; also called Ac-PL3-Asp-Ala-B5-Asp-Glu-Ala-Ala-Phe-Val-S8-23FF-BztA-Gln-NH2) [I-388] | 5000 nM |
| XDAXDHAAFVXFXQ (not fully specified; N-terminal Ac; PL3 at 1, B5 at 4, S8 at 11 (stapled 1-4 and 4-11 by olefin metathesis); 3FF at 12; BztA at 13; C-terminal NH2, Stapled peptide; also called Ac-PL3-Asp-Ala-B5-Asp-His-Ala-Ala-Phe-Val-S8-3FF-BztA-Gln-NH2) [I-397] | 2230 nM |
| Ac-[αAllylPro]DA[B5(16)]DHAAFQ[SeN″][Phe(3-F)][Bta]Q-NH2 (staple 1-4, 4-11; not fully specified; printed as Ac-PL3-Asp-Ala-B5-Asp-His-Ala-Ala-Phe-Gln-SeN-3FF-BztA-Gln-NH2, Stapled peptide; also called Ac-PL3-Asp-Ala-B5-Asp-His-Ala-Ala-Phe-Gln-SeN-3FF-BztA-Gln-NH2) [I-400] | 3590 nM |
| Ac-[αAllylPro]DA[B5(16)]D[His(τ-Me)]AAFV[S8][Phe(3-F)][Bta]Q-NH2 (staple 1-4, 4-11; not fully specified, Stapled peptide; also called Ac-PL3-Asp-Ala-B5-Asp-1meH-Ala-Ala-Phe-Val-S8-3FF-BztA-Gln-NH2) [I-403] | 2130 nM |
| Ac-[αAllylPro]DA[B5(9)]DHAAFV[S8][Phe(3-F)][Bta]Q-NH2 (staple 1-4, 4-11; also: earlier eluting HPLC isomer, E/Z not assigned, Stapled peptide; also called Ac-PL3-Asp-Ala-B5-Asp-His-Ala-Ala-Phe-Val-S8-3FF-BztA-Gln-NH2) [I-396] | 3430 nM |
| Ac-[αAllylPro]DA[B5(16)]DHAAFV[SeN″][Phe(3-F)][Bta]Q-NH2 (staple 1-4, 4-11; not fully specified; printed as Ac-PL3-Asp-Ala-B5-Asp-His-Ala-Ala-Phe-Val-SeN-3FF-BztA-Gln-NH2, Stapled peptide; also called Ac-PL3-Asp-Ala-B5-Asp-His-Ala-Ala-Phe-Val-SeN-3FF-BztA-Gln-NH2) [I-398] | 2160 nM |
| Ac-[αAllylPro]DA[B5(23)]DEAAFQ[S8]F[Bta]Q-NH2 (staple 1-4, 4-11, Stapled peptide; also called Ac-PL3-Asp-Ala-B5-Asp-Glu-Ala-Ala-Phe-Gln-S8-Phe-BztA-Gln-NH2) [I-406] | 94 nM |
| XDAXDHAAFQXFXQ (not fully specified; N-terminal Ac; PL3 at 1, B5 at 4, S8 at 11 (stapled 1-4 and 4-11 by olefin metathesis); 3FF at 12; BztA at 13; C-terminal NH2, Stapled peptide; also called Ac-PL3-Asp-Ala-B5-Asp-His-Ala-Ala-Phe-Gln-S8-3FF-BztA-Gln-NH2) [I-399] | 2500 nM |

Target: T2, full-length beta-Catenin (Uniprot ID …)
Assay: fluorescence polarization competition; full-length beta-catenin, competitor 5FAM-TCF4(10-53) probe
Procedure, shortened: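 Data fitted to 1:1 binding model with hill slope from duplicate reads taken after 60 minutes at 20° C. in the dark.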

| Binder | EC50 |
| --- | --- |
| Ac-[αAllylPro]DL[B5″]DEAAFN[S8]F[Bta][NMeS]-NH2 (staple 1-4, 4-11, Stapled peptide composition) [I-760] | 608 nM |
| Ac-[αAllylPro]DL[B5(28)]DEAAFN[S8]F[Bta]S-NH2 (staple 1-4, 4-11, Stapled peptide composition) [I-751] | 29 nM |
| Ac-[αAllylPro]DL[B5(4)]DEAAFN[S8]F[Bta][dS]-NH2 (staple 1-4, 4-11, Stapled peptide composition) [I-756] | 56 nM |
| Ac-[αAllylPro]DL[B5(4)]DEAAFN[S8]F[Bta][NMeS]-NH2 (staple 1-4, 4-11; also: earlier-eluting HPLC peak (staple isomer), Stapled peptide composition) [I-759] | 1530 nM |
| Ac-[αAllylPro]DL[B5(11)]DEAAFN[S8]F[Bta][NMeH]-NH2 (staple 1-4, 4-11; not fully specified, Stapled peptide composition) [I-747] | 2390 nM |
| Ac-[αAllylPro]DL[B5(4)]DEAAFN[S8]F[Bta][dT]-NH2 (staple 1-4, 4-11; also: later-eluting HPLC peak (staple isomer), Stapled peptide composition) [I-755] | 88 nM |
| XDLXDEAAFNXFXT (not fully specified; as printed: Ac-PL3-Asp-Leu-B5-Asp-Glu-Ala-Ala-Phe-Asn-S8-Phe-BztA-Thr-NH2; N-terminal Ac, C-terminal NH2; stapled by olefin metathesis PL3(1)-B5(4) and B5(4)-S8(11), Stapled peptide composition) [I-749] | 40 nM |
| Ac-[αAllylPro]DL[B5(4)]DEAAFN[S8]F[Bta][dN]-NH2 (staple 1-4, 4-11; also: earlier-eluting HPLC peak (staple isomer), Stapled peptide composition) [I-757] | 64 nM |
